Experimental data as given in paper PMC5663514, “Biochemical characterization of Borrelia burgdorferi’s RecA protein”.

Target: T1, B. burgdorferi RecA (Borrelia burgdorferi B31, UniProt Q59180 1-365)
T1 sequence: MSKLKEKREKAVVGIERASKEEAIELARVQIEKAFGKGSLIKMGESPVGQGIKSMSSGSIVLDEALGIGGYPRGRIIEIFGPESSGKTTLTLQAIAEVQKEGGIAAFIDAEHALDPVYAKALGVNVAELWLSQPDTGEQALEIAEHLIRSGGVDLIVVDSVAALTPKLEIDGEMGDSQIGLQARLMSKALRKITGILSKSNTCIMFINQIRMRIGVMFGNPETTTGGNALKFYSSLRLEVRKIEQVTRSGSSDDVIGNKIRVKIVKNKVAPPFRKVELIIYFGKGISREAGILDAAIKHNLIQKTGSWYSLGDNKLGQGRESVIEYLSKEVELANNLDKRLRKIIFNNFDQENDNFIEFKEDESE
Assay: EMSA with glutaraldehyde protein-protein crosslinking; 2 mM Mg2+, 2 mM ATP; affinity increased by ATP, discrete shift and well shifts; 25 mM HEPES pH 7.6, 2 mM MgCl2, 1 mM DTT, 50 mM NaCl, +/- 2 mM ATP; 10 nM DNA molecules; 30°C 5 min, then 0.033% glutaraldehyde 5 min at 20°C/room temperature
Details: protein: recombinant; tags: His tag (pET15b NdeI/BamHI, Ni-NTA; N-terminal implied, removal not mentioned); single strand

B1: OGCB396 95 nt ssDNA (ssDNA)
DNA: TGCAGGCATGCAAGCTTGGCGTAATCATGGTCATAGCTGTTTCCTGTGTGAAATTGTTATCCGCTCACAATTCCACACAACATACGAGCCGGAAG
  binding result: binds
